Reference: patent US20200297760A1, “COMPOSITIONS AND METHODS FOR REDUCING IMMUNE RESPONSES AGAINST CHIMERIC ANTIGEN RECEPTORS” (Juno Therapeutics, Inc., priority 2015, published 2020)

How the values were obtained:
Conditions in all cases: remark: other sources report otherwise
HLA-A*02:01 (human) = assay: REVEAL MHC-peptide binding assay, recombinant HLA
HLA-A*03:01 (human) = assay: REVEAL MHC-peptide binding assay, recombinant HLA
[1] = target: HLA-A*11:01 (recombinant MHC class I molecule) (human); assay: REVEAL MHC-peptide binding assay, recombinant HLA-A*11:01
[2] = target: HLA-B*08:01 (recombinant MHC class I molecule) (human); assay: REVEAL MHC-peptide binding assay, recombinant HLA-B*08:01

Row | Binder | In Vitro Score (% of positive control peptide) (HLA-A*02:01 (human)) | In Vitro Score (% of positive control peptide) (HLA-A*03:01 (human)) | In Vitro Score (score, % of positive control peptide) [1] | In Vitro Score (score, % of positive control peptide) [2]
1 | IIFWVQRGR |  |  | 72.8 | 0.1
2 | WVKRGHKKL [Synthetic peptide …, listing 1 of 2 here] |  |  | 2.8 | 47.6
3 | IIFWVKRGN […, listing 1 of 2 here] |  | 4.3 |  | 
4 | WVQRGNKKL […, listing 1 of 2 here] | 4.3 | 1.5 |  | 
5 | WVQRGRKKL […, listing 1 of 2 here] |  | 4.9 |  | 
6 | IIFWVLRGR [Synthetic peptide …, listing 1 of 2 here] |  |  | 35.2 | 0.4
7 | IIFWVARGR […, listing 1 of 2 here] |  | 18.6 |  | 
8 | FIIFWVHRG |  |  | 0.9 | 0.2
9 | IFWVKRGLK |  |  | 61.1 | 58.3
10 | VAFIIFWVK […, listing 1 of 2 here] | 0.7 | 1.5 |  | 
11 | AFIIFWVAR |  |  | 51.8 | 0.2
12 | WVKRGAKKL […, listing 1 of 2 here] | 4.7 | 4.1 |  | 
13 | WVKRGNKKL [Synthetic peptide …, listing 2 of 2 here] |  |  | 4.1 | 65.9
14 | VAFIIFWVS […, listing 2 of 2 here] | 70.6 | 0.7 |  | 
15 | IFWVQRGAK […, listing 1 of 2 here] | 11.7 | 17 |  | 
16 | WVARGRKKL [Synthetic peptide …, listing 2 of 2 here] |  |  | 13.8 | 32.4
17 | VAFIIFWVK [Synthetic peptide …, listing 2 of 2 here] |  |  | 109 | 0.3
18 | IIFWVKRGS |  |  |  | 0.4
19 | IIFWVKRGA […, listing 2 of 2 here] | 85.9 | 42.9 |  | 
20 | IFWVKRGAK [Synthetic peptide …, listing 2 of 2 here] |  |  | 69.7 | 2.2
21 | WVKRGAKKL [Synthetic peptide …, listing 2 of 2 here] |  |  | 4.6 | 34.1
22 | IIFWVLRGR […, listing 2 of 2 here] |  | 2.8 |  | 

Results, then the binder that gave them:

Row | In Vitro Score (% of positive control peptide) (HLA-A*02:01 (human)) | In Vitro Score (% of positive control peptide) (HLA-A*03:01 (human)) | In Vitro Score (score, % of positive control peptide) [1] | In Vitro Score (score, % of positive control peptide) [2] | Binder
23 | 2.4 | 0.9 |  |  | WVKRGNKKL […, listing 1 of 2 here]
24 | 95.3 | 2.7 |  |  | IIFWVQRGA […, listing 1 of 2 here]
25 |  |  | 68.9 | 0 | IIFWVSRGR
26 |  |  | 25.1 | 0.1 | VAFIIFWVS [Synthetic peptide …, listing 1 of 2 here]
27 |  |  | 47.9 | 1.2 | IFWVKRGSK
28 |  |  | 54 | 0.3 | AFIIFWVSR
29 |  |  | 128 | 0 | IFWVQRGRK
30 |  |  | 11.8 | 56.1 | WVKRGSKKL
31 | 16.1 | 23.2 |  |  | IFWVQRGNK […, listing 1 of 2 here]
32 |  |  | 12.8 | 45.1 | WVQRGRKKL [Synthetic peptide …, listing 2 of 2 here]
33 |  |  | 39.2 | 0 | IFWVSRGRK
34 |  |  | 45.9 | 0.1 | IFWVKRGNK [Synthetic peptide …, listing 1 of 2 here]
35 |  |  | 36.6 | 0.1 | IFWVHRGRK
36 |  |  | 34.9 | 0.3 | AFIIFWVHR
37 |  |  | 77.5 | 0.2 | IIFWVHRGR
38 |  |  | 32.4 | 1.7 | IIFWVKRGL

Row | In Vitro Score (% of positive control peptide) (HLA-A*02:01 (human)) | In Vitro Score (% of positive control peptide) (HLA-A*03:01 (human)) | In Vitro Score (score, % of positive control peptide) [1] | In Vitro Score (score, % of positive control peptide) [2] | Binder
39 |  |  | 70.6 | 0.3 | IIFWVARGR [Synthetic peptide …, listing 2 of 2 here]
40 | 3.5 |  |  |  | IFWVKRGNK […, listing 2 of 2 here]
41 |  |  | 42.1 | 0.9 | IIFWVKRGN [Synthetic peptide …, listing 2 of 2 here]
42 |  |  | 54.5 | 0 | IIFWVKRGR
43 |  | 1.3 |  |  | WVARGRKKL […, listing 1 of 2 here]
44 |  |  | 30.9 | 3.2 | IFWVKRGHK [Synthetic peptide …, listing 1 of 2 here]
45 |  |  | 34.9 | 0 | IFWVARGRK
46 | 13.8 | 22 |  |  | IFWVKRGAK […, listing 1 of 2 here]
47 | 2.2 |  |  |  | IFWVKRGHK […, listing 2 of 2 here]
48 |  |  | 56.5 | 0.2 | IIFWVQRGA [Synthetic peptide …, listing 2 of 2 here]
49 |  |  | 61.3 | 0.2 | IFWVQRGAK [Synthetic peptide …, listing 2 of 2 here]
50 |  |  | 67.5 | 0.1 | IFWVQRGNK [Synthetic peptide …, listing 2 of 2 here]
51 | 3.9 | 1.4 |  |  | WVKRGHKKL […, listing 2 of 2 here]
52 |  |  | 22.6 | 0.9 | IIFWVKRGA [Synthetic peptide …, listing 1 of 2 here]
53 |  |  | 10.7 | 32 | WVQRGNKKL [Synthetic peptide …, listing 2 of 2 here]
